In patent US20200353078A1 (AstraZeneca / MedImmune, published 2020):
Read-outs that look alike come from different tables or passages of the source.

B1: 33_640087-7B IgG1 (antibody, V domains shown)
VH: EVQLLESGGGLVQPGGSLRLSCAASGFTFSSYAMSWVRQAPGKGLEWVSGISAIDQSTYYADSVKGRFTISRDNSKNTLYLQMNSLRAEDTAVYYCARQKFMQLWGGGLRYPFGYWGQGTMVTVSS
VL: SYVLTQPPSVSVSPGQTASITCSGEGMGDKYAAWYQQKPGQSPVLVIYRDTKRPSGIPERFSGSNSGNTATLTISGTQAMDEADYYCGVIQDNTGVFGGGTKLTVL
notes: IgG1
B3: Human IL-33 Flag®His (ligand)
chain: SITGISPITEYLASLSTYNDQSITFALEDESYEIYVEDLKKDEKKDKVLLSYYESQHPSNESGDGVDGKMLMVTLSPTKDFWLHANNKEHSVELHKCEKPLPDQAFFVLHNMHSNCVSFECKTDPGVFIGVKDNHLALIKVDSSENLCTENILFKLSETNPAFLYKVVGAADYKDDDDKAAHHHHHHHHHH
notes: Mature IL-33 with C-terminal FLAG 10xHis tag, from E. coli; biotinylated via free cysteines where used biotinylated; also called Mature Human IL-33_FH; human IL-33 FH

Legend:
[1] = molecular target: T1, Endogenous human IL-33 (human, UniProt O95760 1-270, limits assumed); test: cell-based or functional assay
T1 sequence (looked up): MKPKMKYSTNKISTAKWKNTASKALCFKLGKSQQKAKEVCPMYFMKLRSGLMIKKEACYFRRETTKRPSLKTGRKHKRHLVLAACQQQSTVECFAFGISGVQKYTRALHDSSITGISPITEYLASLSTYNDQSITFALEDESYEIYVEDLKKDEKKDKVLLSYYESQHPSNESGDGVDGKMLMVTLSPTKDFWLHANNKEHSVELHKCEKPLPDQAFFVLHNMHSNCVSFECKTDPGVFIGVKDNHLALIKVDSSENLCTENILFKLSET

[2] = molecular target: T2, His10/Avi Human IL33-01 (human); test: cell-based or functional assay
T2 chain: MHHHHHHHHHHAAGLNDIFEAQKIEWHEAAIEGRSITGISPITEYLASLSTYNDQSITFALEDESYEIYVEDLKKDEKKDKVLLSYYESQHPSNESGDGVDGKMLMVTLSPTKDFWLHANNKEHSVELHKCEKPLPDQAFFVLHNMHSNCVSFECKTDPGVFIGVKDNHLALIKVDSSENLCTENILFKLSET

[3] = molecular target: T3, Recombinant human IL-33 (construct not named in the example) (human, UniProt O95760 112-270, limits assumed); test: KinExA 3200, IgG at 5 pM and 500 fM equilibrated with IL-33, 25 C
T3 construct: also called Recombinant, enzymatically biotinylated human IL-33 (produced in-house); IL-33 (200 nM)
T3 sequence (looked up): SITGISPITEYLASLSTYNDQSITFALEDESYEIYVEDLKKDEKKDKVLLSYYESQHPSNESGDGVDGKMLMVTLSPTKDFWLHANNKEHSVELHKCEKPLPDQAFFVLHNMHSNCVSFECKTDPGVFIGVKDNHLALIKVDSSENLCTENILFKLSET
Method: The affinity of the antibody 33_640087-7B was measured by kinetic exclusion assays performed on the KinExA 3200. The sampling beads were prepared by mixing 200 mg of dry UltraLink Biosupport Azlactone beads with 110 μg of IL-33 (as mentioned previously) in 2.5 ml of 50 mM sodium hydrogen bicarbonate pH 8.4 at room temperature for 2 hours with constant agitation. The beads were rinsed and blocked with 10 mg/ml BSA in 1M Tris pH 8.7. Prior to use, the beads were resuspended into D-PBS, 0.02% sodium azide. 33_640087-7B/IL-33 equilibrium mixtures were prepared in sample buffer composed of 1 mg/ml BSA, 0.02% sodium azide in DPBS (Dulbecco's PBS). […] The fluorescent secondary detection reagent was Alexa Fluor 647 goat anti-human-Fc diluted in 1 mg/ml BSA, 0.02% sodium azide, 0.1% Tween 20 in DPBS. The samples were run on the KinExA whilst housed in a temperature controlled cabinet set at 25° C. The data was analysed using the KinExA Pro software version 4.1.11.

[4] = molecular target: T2, His10/Avi Human IL33-01; test: HTRF competition: purified IgG against FLAG-His human ST2 for biotinylated IL33-01, overnight incubation
[5] = molecular target: T4, Human IL-33 (Axxora/Adipogen AG-40B-0038) (human, UniProt O95760 112-270, limits assumed); test: cell-based or functional assay
T4 sequence (looked up): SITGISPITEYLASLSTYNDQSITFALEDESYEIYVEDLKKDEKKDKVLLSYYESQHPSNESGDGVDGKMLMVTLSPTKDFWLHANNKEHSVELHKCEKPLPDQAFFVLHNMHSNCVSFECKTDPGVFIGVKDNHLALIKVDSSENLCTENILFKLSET

[6] = molecular target: B3; test: cell-based or functional assay
[7] = molecular target: B3; test: HTRF competition, IgG titrated against biotinylated human ST2-Fc
Outline: (§1)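 Antibody dilution series competed with biotinylated human ST2-Fc (added from a 4 nM mix with streptavidin-XL665) for IL-33 (added from a 1.2 nM mix with anti-FLAG cryptate). Buffer was DPBS with 0.8 M KF and 0.1% BSA. Incubation ran 2 h at RT then 16 h at 4 °C, with TRF read at 620/665 nm.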

[8] = molecular target: T5, Cynomolgus IL-33 Flag®His (cynomolgus monkey); test: as above
T5 construct: C-terminal FLAG 10xHis tag, E. coli; also called Mature Cynomolugus IL-33; cyno IL-33 FH
T5 chain: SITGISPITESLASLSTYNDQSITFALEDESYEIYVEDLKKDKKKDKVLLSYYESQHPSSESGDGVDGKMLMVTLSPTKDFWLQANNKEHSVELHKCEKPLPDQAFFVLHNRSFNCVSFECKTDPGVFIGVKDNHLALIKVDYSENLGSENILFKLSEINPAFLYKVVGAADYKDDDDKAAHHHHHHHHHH
Outline: as §1

[9] = molecular target: B3; test: SPR BIAcore 2000, IgG captured on Protein G', IL-33 as analyte, 1:1 Langmuir
Method: (§2) The binding affinity of purified IgG samples of exemplary binding members to human and cynomolgus IL-33 was determined by surface plasmon resonance using BIAcore 2000 biosensor (BIAcore AB) essentially as described by Karlsson et al., J Immunol Methods 145(1-2):229-40 (1991). In brief, Protein G′ (Sigma Aldrich, P4689) was covalently coupled to the surface of a CM5 sensor chip using standard amine coupling reagents according to manufacturer's instructions (BIAcore). The protein G′ surface was used to capture purified anti-IL-33 antibodies via the Fc domain to provide a surface density of approximately 290 RU per cycle. Human or cynomolgus IL-33 prepared in HBS-EP buffer (BIAcore AB), at a range of concentrations, between 600 nM and 18.75 nM, were passed over the sensor chip surface. The surface was regenerated using two 10 mM Glycine washes of pH 1.7 and pH 1.5 between each injection of antibody. The resulting sensorgrams were evaluated using BIA evaluation 3.1 software and fitted to a 1:1 Langmuir binding model, to provide relative binding data. The binding results (KD, Ka, and Kd) for antibodies IL330002 and IL330004 binding to human or cynomolgus IL-33 are shown in Table 8.

[10] = molecular target: T5, Cynomolgus IL-33 Flag®His; test: as above
Method: as §2

[11] = molecular target: T2, His10/Avi Human IL33-01; test: HTRF competition: purified IgG against FLAG-His human ST2 for biotinylated IL33-01, 1 hour incubation
[12] = molecular target: T6, 33v20064 IgG1; test: HTRF: unlabelled test protein competes with biotinylated human IL33-01 for DyLight labelled 33v20064 IgG
T6 construct: IgG1; also called ZZ1EBX-E05
T6 sequence (VL, as listed by the source): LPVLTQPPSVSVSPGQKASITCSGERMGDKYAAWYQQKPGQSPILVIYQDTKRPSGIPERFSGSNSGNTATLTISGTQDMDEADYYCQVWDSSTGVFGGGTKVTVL
Method: (§3) Human, cyno and mouse IL-33 FLAG® His (described in Example 1) were tested for inhibition of human IL-33 binding to DyLight labelled 33v20064 by adding 5 microlitres of each dilution of IL-33 sample to a 384 well low volume assay plate (Costar, 3673). […] This was followed by the addition of 2.5 microlitres of a solution containing 1.2 nM biotinylated human IL-33-01 combined with 1.5 nM streptavidin cryptate detection (Cisbio International, 610SAKLB). All dilutions were performed in assay buffer containing 0.8 M potassium fluoride (VWR, 26820.236) and 0.1% bovine serum albumin (BSA, PAA, K05-013) in Dulbeccos PBS (Invitrogen, 14190185). Assay plates were incubated for 1 hour at room temperature and time resolved fluorescence was read at 620 nm and 665 nm emission wavelengths using an EnVision plate reader (Perkin Elmer). Data were analysed by calculating the 665/620 nm ratio followed by the % Delta F values for each sample. The 665/620 nm ratio was used to correct for sample interference using Equation 1. The % Delta F for each sample was then calculated using Equation 2. The negative control (non-specific binding) was defined by replacing biotinylated human IL-33 combined with streptavidin cryptate detection with streptavidin cryptate detection only. […] IC₅₀ values were determined using GraphPad Prism software by curve fitting using a four-parameter logistic equation (Equation 4).

[13] = molecular target: T6, 33v20064 IgG1; test: as above; remark: listed apart in the source
Method: as §3

[14] = molecular target: B1; test: HTRF: unlabelled test protein competes with biotinylated human IL33-01 for DyLight650 labelled 33_640087-7B IgG
Method: Human, cyno and mouse IL-33 FLAG® His (described in Example 1 and Table 21), Human IL-1 alpha and IL-1 beta (R&D Systems) (Table 21) or rat IL-33 (GenScript) were tested for inhibition of human IL-33 binding to DyLight650 labelled 33_640087-7B or DyLight650 labelled 33_640237-2B by adding 5 microlitres of each dilution of sample to a 384 well low volume assay plate (Costar, 3673). […] This was followed by the addition of 2.5 microlitres of a solution containing 0.12 nM biotinylated human IL-33-01 combined with 0.75 nM streptavidin cryptate detection (Cisbio International, 610SAKLB). All dilutions were performed in assay buffer containing 0.8 M potassium fluoride (VWR, 26820.236) and 0.1% bovine serum albumin (BSA, PAA, K05-013) in Dulbeccos PBS (Invitrogen, 14190185). Assay plates were incubated for 4 hours at room temperature followed by 18 hours at 4 degrees Celsius and time resolved fluorescence was read at 620 nm and 665 nm emission wavelengths using an EnVision plate reader (Perkin Elmer). Data were analysed by calculating the 665/620 nm ratio followed by the % Delta F values for each sample. The 665/620 nm ratio was used to correct for sample interference using Equation 1. The % Delta F for each sample was then calculated using Equation 2. […] IC₅₀ values were determined using GraphPad Prism software by curve fitting using a four-parameter logistic equation (Equation 4).

[15] = molecular target: T7, 33_640237-2B IgG1; test: HTRF: unlabelled test protein competes with biotinylated human IL33-01 for DyLight650 labelled 33_640237-2B IgG
T7 construct: IgG1
Method: Human, cyno and mouse IL-33 FLAG® His (described in Example 1 and Table 21), Human IL-1 alpha and IL-1 beta (R&D Systems) (Table 21) or rat IL-33 (GenScript) were tested for inhibition of human IL-33 binding to DyLight650 labelled 33_640087-7B or DyLight650 labelled 33_640237-2B by adding 5 microlitres of each dilution of sample to a 384 well low volume assay plate (Costar, 3673). […] This was followed by the addition of 2.5 microlitres of a solution containing 0.12 nM biotinylated human IL-33-01 combined with 0.75 nM streptavidin cryptate detection (Cisbio International, 610SAKLB). All dilutions were performed in assay buffer containing 0.8 M potassium fluoride (VWR, 26820.236) and 0.1% bovine serum albumin (BSA, PAA, K05-013) in Dulbeccos PBS (Invitrogen, 14190185). Assay plates were incubated for 4 hours at room temperature followed by 18 hours at 4 degrees Celsius and time resolved fluorescence was read at 620 nm and 665 nm emission wavelengths using an EnVision plate reader (Perkin Elmer). Data were analysed by calculating the 665/620 nm ratio followed by the % Delta F values for each sample. The 665/620 nm ratio was used to correct for sample interference using Equation 1. The % Delta F for each sample was then calculated using Equation 2. The negative control (non-specific binding) was defined by replacing biotinylated human IL-33 combined with streptavidin cryptate detection with streptavidin cryptate detection only. The % Delta F values were subsequently used to calculate % specific binding as described in Equation 3. IC₅₀ values were determined using GraphPad Prism software by curve fitting using a four-parameter logistic equation (Equation 4).

With B1 the “IC50, Huvec IL-8 release stimulated by human lung lysate” value [1] was 0.013 nM, the “IC50 (nM) vs. His Avi IL-33, Huvec IL-8 assay” value [2] was 0.046 nM and the Kd [3] was 0.03 pM. The “IC50 (read off the curve)” value [4] was ~0.4 nM.

B2: IL330004 IgG1 (antibody, V domains shown)
VH: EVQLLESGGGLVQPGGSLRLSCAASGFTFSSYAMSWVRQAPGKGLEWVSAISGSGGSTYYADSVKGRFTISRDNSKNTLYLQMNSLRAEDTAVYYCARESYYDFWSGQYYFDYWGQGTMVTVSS
VL: SYELTQPPSVSVSPGQTASISCSGDKLGDKFASWYQQKPGQSPVLIIYQDRKRPSGIPERFSGSNSGNTATLTISGTQTTDEADYYCQAWDGSLYVFGTGTKLTVL
notes: Human IgG1, lambda constant
With B2 the “IC50, Huvec p65/RelA NFκB nuclear translocation” value [5] was 12 nM, the “IC50, human ST2 transfected HeLa NFkB luciferase reporter assay” value [6] was 23 nM and the IC50 [7] was 9 nM. For the same binder, the IC50 [8] was 170 nM, the Kd [9] was 6 nM and the koff [9] was 0.0011 s⁻¹. For the same binder, the kon [9] was 196000 M⁻¹ s⁻¹, the Kd [10] was 365 nM and the koff [10] was 0.00458 s⁻¹. For the same binder, the kon [10] was 12500 M⁻¹ s⁻¹ and the “IC50 (read off the curve)” value [11] was ~1 nM.

For B3, the “IC50 (read off the curve)” value [12] was ~200 nM, the “IC50 (read off the curve)” value [13] was ~100 nM and the “IC50 (read off the curve)” value [14] was ~0.7 nM. For the same binder, the “IC50 (read off the curve)” value [15] was ~1 nM.
